Measurements: paper PMC7900517, “PIP2 promotes conformation-specific dimerization of the EphA2 membrane region” (The Journal of Biological Chemistry, 2020)
Ends that are not written are not given here. Alexa Fluor 488 = fluorescent dye attached through a C5 maleimide linker to the added cysteine

B1: TMJM peptide (unlabeled) (peptide)
peptide: GSGNLAVIGGVAVGVVLLLVLAGVGFFIHRRRKCWN
notes: EphA2 residues 531 to 563: a short stretch of extracellular residues, the TMD and the first five JM residues (HRRRK); added residues at the C terminus; the free cysteine forms the disulfide in the cross-linking experiment; Free Cys at the JM end; also called unlabeled TMJM; source: synthetic peptide (F-moc chemistry, Thermo Fisher)
B2: TMJM peptide labeled with Alexa Fluor 488 (peptide)
peptide: GSGNLAVIGGVAVGVVLLLVLAGVGFFIHRRRKC(Alexa Fluor 488)WN
modifications: also: Alexa Fluor 488 (C5 maleimide) on the added C-terminal cysteine
notes: EphA2 residues 531 to 563: a short stretch of extracellular residues, the TMD and the first five JM residues (HRRRK); added residues at the C terminus: a cysteine for dye conjugation and a tryptophan as fluorescent reporter; Reconstituted in 14:1 PC or 22:1 PC bilayers with 3% biotin-PE and solubilised as SMALPs; also called Alexa Fluor 488 labeled TMJM peptide; source: synthetic peptide (F-moc …)

Legend:
[1] = target: the molecule itself; experiment: cross-linking; disulfide cross-linking through the C-terminal Cys; unlabeled TMJM in 14:1 PC or 22:1 PC liposomes ± 3% PIP2, lipid-to-peptide ratio 300:1; 19.3 mM HEPES, 1 mM EGTA, shaken 3 h at room temperature (19-21 °C); non-reducing SDS-PAGE (16% tricine gel), silver stain
[2] = target: the molecule itself; experiment: single-molecule photobleaching (TIRF) in SMALPs; Alexa Fluor 488-TMJM in 22:1 PC or 14:1 PC SMALPs with 3% biotin-PE, ± 3% PIP2 or 10% POPS, ± 1 mM Ca2+; lipid-to-peptide ratio 300:1; SMALPs (20 to 30 nM peptide) immobilised on PEGylated slides via biotin-streptavidin; SMALP buffer 19.3 mM HEPES, 150 mM NaCl, 1 mM EGTA; photobleaching steps counted for each SMALP

Row | Protein | binding result [1] | stoichiometry N [2]
1 | B1 | binds | –
2 | B2 | – | 2
